For data set [1], the target named is T1, RAD51 (Homo sapiens, UniProt Q06609 1-339). Nature of the data set: cryo-EM structure (3.8 A); Ca2+, ATP (pre-synaptic filament; two Ca2+ per ATP site); EMSA: 25 mM HEPES pH 7.5, 150 mM NaCl, 2 mM DTT, 5 mM CaCl2, 2 mM ATP or 0.5-10 mM ADP, 25 C 15 min; 0.5% agarose in 0.5x TB at 4 C. Particulars: protein: recombinant; tags: none stated on the final protein; co-expressed with His6-MBP-BRCA2 BRC4 (pMBP4-RAD51); chain copies: 10; single strand. In general terms: A gel shift assay detects complexes by their altered migration in electrophoresis.
T1 sequence (Q06609 whole entry): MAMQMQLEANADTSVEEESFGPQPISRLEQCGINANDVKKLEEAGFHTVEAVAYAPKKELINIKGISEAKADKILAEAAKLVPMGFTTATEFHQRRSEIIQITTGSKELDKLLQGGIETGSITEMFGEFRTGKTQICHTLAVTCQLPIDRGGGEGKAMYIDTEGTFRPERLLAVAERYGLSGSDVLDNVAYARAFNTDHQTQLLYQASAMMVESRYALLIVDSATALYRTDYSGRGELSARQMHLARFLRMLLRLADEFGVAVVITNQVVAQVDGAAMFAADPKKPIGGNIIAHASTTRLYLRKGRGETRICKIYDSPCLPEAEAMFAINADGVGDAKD

The target in data set [2] is T1, RAD51. The data set is described as follows: cryo-EM structure; ATP, Ca2+ (post-synaptic filament; second metal ion present); EMSA: 25 mM HEPES pH 7.5, 150 mM NaCl, 2 mM DTT, 5 mM CaCl2, 2 mM ATP or 0.5-10 mM ADP, 25 C 15 min; 0.5% agarose in 0.5x TB at 4 C. To be noted: protein: recombinant; tags: none stated on the final protein; co-expressed with His6-MBP-BRCA2 BRC4 (pMBP4-RAD51); chain copies: 16; blunt ends, internal 10-nt mismatched bubble.

B1: x60 ssDNA 60mer (ssDNA)
DNA: ATGGTGTGTGTAGGTTAATGTGAGGAGGAGAGGTGAAGAAGGAGGAGAGAAGAAGGAGGC
As to B1, in the data set with RAD51 [1], the binding result is reported as “binds”.

B2: R51-14:R51-15 (post-synaptic filament DNA) (dsDNA)
DNA 1: TGGAGGTGCATCGAGCTCGCGACAAACCTTCTATGTTGAGCGTCAGTCGG
DNA 2: CCGACTGACGCTCAACATAGGTACCACACGGCGAGCTCGATGCACCTCCA
With B2, the binding result with RAD51 [2] was “binds”.

Source of the values: article PMC10192527, “A metal ion-dependent mechanism of RAD51 nucleoprotein filament disassembly”.
